The record followed here is publication PMC9676401.

Assay [1] deals with GFP-tagged JNK1 (JNK1β) in pEGFP-C2. Nature of the assay: co-immunoprecipitation (anti-FLAG IP, anti-GFP immunoblot, densitometry). Conditions: COS-7 cells, transient transfection 48 h; parent: est. 1.0; read off a plot. On the technique in general: In western blotting, separated proteins are transferred to a membrane and probed.
Assay [2] addresses Full-length FLAG-tagged MKP7 C244S (catalytically inactive, substrate-trapping) (human) (UniProt Q9BY84). Put plainly: co-IP; COS-7 cells cotransfected for 48 h in 10% FBS DMEM with FLAG-MKP7 (WT or mutants) and p38α MAPK-HA, JNK1β-GFP or ERK2-HA; Pierce IP lysis buffer; immunoprecipitation with anti-FLAG M2 overnight and protein-G beads; immunoblot with anti-HA or anti-GFP; quantitation as MAPK/FLAG-MKP7.
Sequence of UniProt Q9BY84 (Q9BY84 whole entry C244S): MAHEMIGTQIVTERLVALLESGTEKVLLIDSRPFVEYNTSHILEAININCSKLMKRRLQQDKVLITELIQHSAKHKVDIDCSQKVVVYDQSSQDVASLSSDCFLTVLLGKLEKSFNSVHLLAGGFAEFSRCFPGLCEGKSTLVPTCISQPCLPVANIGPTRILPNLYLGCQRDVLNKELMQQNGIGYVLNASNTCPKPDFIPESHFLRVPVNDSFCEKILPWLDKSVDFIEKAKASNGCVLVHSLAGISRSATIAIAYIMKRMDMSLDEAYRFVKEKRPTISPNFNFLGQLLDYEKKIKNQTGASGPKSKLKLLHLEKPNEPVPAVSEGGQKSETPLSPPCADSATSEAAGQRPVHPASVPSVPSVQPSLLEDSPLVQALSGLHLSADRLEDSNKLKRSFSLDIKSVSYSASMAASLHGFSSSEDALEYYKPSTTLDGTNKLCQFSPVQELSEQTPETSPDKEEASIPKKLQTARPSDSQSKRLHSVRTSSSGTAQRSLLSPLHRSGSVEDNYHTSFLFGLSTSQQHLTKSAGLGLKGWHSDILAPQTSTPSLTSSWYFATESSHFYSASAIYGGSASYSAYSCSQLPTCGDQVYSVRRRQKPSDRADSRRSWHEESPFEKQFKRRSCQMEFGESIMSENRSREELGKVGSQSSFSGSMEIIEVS

Sequence of GFP-tagged JNK1 (JNK1β) in pEGFP-C2 (P45983 whole entry): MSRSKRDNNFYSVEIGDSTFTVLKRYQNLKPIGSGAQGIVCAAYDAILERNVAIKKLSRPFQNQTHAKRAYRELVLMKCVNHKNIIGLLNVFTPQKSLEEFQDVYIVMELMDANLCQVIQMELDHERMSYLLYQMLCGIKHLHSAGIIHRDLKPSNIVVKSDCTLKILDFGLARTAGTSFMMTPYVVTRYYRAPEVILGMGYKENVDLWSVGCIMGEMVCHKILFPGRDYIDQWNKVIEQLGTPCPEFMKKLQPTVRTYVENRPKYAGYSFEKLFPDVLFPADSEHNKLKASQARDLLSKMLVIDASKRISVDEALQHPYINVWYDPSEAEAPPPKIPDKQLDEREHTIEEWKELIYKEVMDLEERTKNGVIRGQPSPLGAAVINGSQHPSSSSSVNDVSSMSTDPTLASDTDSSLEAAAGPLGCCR

Turning to “Full-length FLAG-tagged MKP7 WT (1-665 aa) (from UniProt Q9BY84) Y271S”, in assay [1], the ratio to parent stood at 0.
In turn, “GFP-tagged JNK1 (JNK1β) in pEGFP-C2 (enzyme)” displayed a fold bound compared with WT in assay [2] of 3 fold.
“Full-length FLAG-tagged MKP7 WT (1-665 aa) (from UniProt Q9BY84) Y271S; C244S”: the ratio to parent in assay [1] was found to be 0.
